Laboratory results from US20180346565A1 (AbbVie / Abbott, published 2018).

Molecular target: T1, DLL3 purified protein (human, UniProt Q9NYJ7 27-492, limits assumed)
T1 construct: also called purified DLL3; immobilized human DLL3
T1 sequence (looked up): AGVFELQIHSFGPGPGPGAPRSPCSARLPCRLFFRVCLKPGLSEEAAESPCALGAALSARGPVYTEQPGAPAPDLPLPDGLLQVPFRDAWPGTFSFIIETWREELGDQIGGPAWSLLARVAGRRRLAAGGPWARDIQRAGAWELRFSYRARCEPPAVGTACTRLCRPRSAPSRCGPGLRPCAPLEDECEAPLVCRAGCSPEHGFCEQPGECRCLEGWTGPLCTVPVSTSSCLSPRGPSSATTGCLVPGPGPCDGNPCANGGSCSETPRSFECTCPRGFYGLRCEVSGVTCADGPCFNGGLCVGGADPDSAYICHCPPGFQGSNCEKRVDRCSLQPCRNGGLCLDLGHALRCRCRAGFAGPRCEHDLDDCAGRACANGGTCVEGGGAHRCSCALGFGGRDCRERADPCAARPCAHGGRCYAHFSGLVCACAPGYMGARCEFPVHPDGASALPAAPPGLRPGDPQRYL
Assay: ELISA, plate coated with 1 ug/ml purified DLL3, serially diluted antibody, detection with HRP-conjugated anti-human IgG1 reporter mAb, TMB, OD450
Description: Site-specific anti-DLL3 antibodies fabricated as set forth in the previous Examples were screened by an ELISA assay to determine whether they bound to DLL3 purified protein. The parental native antibody was used as a control and run alongside the site-specific anti-DLL3 antibody. Binding of the antibodies to DLL3 was detected with a monoclonal antibody (mAb) reporter antibody conjugated to horseradish peroxidase (HRP), (Southern Biotech, Cat. No. SB9052-05), which binds to an epitope present on human IgG1 molecules. HRP reacts with its substrate tetramethyl benzidine (TMB). The amount of […] TMB is directly proportional to the amount of test antibody bound to DLL3.
ELISA plates were coated with 1 μg/ml purified DLL3 in PBS and incubated overnight at 4° C. Excess protein was removed by washing and the wells were blocked with 2% (w/v) BSA in PBS with 0.05% tween 20 (PBST), 200 μL/well for 1 hour at room temperature. After washing, 100 μL/well serially diluted antibody or ADC were added in PBST for 1 hour at room temperature. The plates were washed again and 0.5 ug/ml of 100 μL/well of the appropriate reporter antibody was added in PBST for 1 hour at room temperature. […] The samples were then analyzed by spectrophotometer at OD 450.

- EC50 (read off the curve): ~10 ng/mL
B1: hSC16.56 (antibody, human IgG1, kappa, V domains shown)
VH: QVQLVQSGAEVKKPGASVKVSCKASGYTFTNYGMNWVRQAPGQGLEWMGWINTYTGEPTYADDFKGRVTMTTDTSTSTAYMELRSLRSDDTAVYYCARIGDSSPSDYWGQGTLVTVSS
VL: EIVMTQSPATLSVSPGERATLSCKASQSVSNDVVWYQQKPGQAPRLLIYYASNRYTGIPARFSGSGSGTEFTLTISSLQSEDFAVYYCQQDYTSPWTFGQGTKLEIKR
notes: Native human IgG1/kappa; also called humanized SC16.56; humanized anti-DLL3 antibody hSC16.56
